Measurements reported in PMC4803204, “A Novel Glutamyl (Aspartyl)-Specific Aminopeptidase A from Lactobacillus delbrueckii with Promising Properties for Application” (PLoS ONE, 2016).
Each block holds one molecule with its values, some of them ahead of it.

What was measured:
[1] = target: T1, Lb-PepA (Lactobacillus delbrueckii, UniProt F0HXE4); assay: p-nitroaniline release at […] nm, Michaelis-Menten nonlinear fit; format: biochemical; conditions: substrate inhibition constant, apparent; 50 mM Na/K-phosphate pH 6.0, 60 °C, 0.625 mM CoCl2
T1 construct: full length (361 aa, 1086 bp gene), C-terminal His6-tag kept, pET20b(+), E. coli BL21(DE3), Ni-NTA purified
T1 sequence (F0HXE4 1-361): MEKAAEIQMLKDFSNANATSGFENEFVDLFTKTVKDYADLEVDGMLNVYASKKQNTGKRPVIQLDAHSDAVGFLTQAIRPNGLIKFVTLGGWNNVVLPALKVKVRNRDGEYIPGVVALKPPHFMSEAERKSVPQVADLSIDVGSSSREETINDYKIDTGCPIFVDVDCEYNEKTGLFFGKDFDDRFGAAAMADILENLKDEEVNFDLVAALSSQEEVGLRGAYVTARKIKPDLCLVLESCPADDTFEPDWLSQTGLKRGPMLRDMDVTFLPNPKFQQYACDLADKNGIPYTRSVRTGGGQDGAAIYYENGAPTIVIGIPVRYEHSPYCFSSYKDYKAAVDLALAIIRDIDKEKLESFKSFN

[2] = target: T2, Lc-PepA (Lactococcus lactis, UniProt Q9CIH3); assay: as above; format: biochemical; conditions: substrate inhibition constant, apparent; 50 mM Na/K-phosphate pH 8.0, 65 °C, 0.3125 mM CoCl2
T2 construct: full length (355 aa, 1068 bp gene), C-terminal His6-tag kept, pET20b(+), E. coli BL21(DE3), Ni-NTA purified
T2 sequence (Q9CIH3 1-355): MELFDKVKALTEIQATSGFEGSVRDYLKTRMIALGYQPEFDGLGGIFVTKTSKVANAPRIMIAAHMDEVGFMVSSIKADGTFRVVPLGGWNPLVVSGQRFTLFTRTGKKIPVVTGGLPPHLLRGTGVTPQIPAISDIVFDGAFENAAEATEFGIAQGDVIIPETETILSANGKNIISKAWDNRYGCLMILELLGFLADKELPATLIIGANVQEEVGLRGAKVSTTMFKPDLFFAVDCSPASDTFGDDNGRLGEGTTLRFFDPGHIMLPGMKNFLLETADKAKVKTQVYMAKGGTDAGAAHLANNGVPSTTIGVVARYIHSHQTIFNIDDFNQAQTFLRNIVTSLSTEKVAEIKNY

[3] = target: T2, Lc-PepA; assay: as above; format: biochemical; conditions: substrate inhibition constant, apparent; 50 mM Na/K-phosphate pH 8.0, 65 °C, 0.3125 mM CoCl2; remark: listed apart in the source
[4] = target: T2, Lc-PepA; assay: product inhibition, p-nitroaniline release at […] nm; format: biochemical
[5] = target: Glutamyl (aspartyl)-specific aminopeptidase A (PepA) from Lactobacillus delbrueckii ssp. lactis DSM 20072 (Lactobacillus delbrueckii ssp. lactis DSM 20072); assay: SEC; Superdex 200 10/300 GL, 30 uL at 1 mg/mL, 0.75 mL/min, 10 mM Na/K-phosphate pH 6.0 with 150 mM NaCl; native mass against calibration proteins, divided by the monomer's mass
[6] = target: Glutamyl (aspartyl)-specific aminopeptidase A (PepA) from Lactococcus lactis ssp. lactis DSM 20481 (Lactococcus lactis ssp. lactis DSM 20481) (UniProt Q48677); assay: SEC; Superdex 200 10/300 GL, 30 uL at 1 mg/mL, 0.75 mL/min, 10 mM Na/K-phosphate pH 8.0 with 150 mM NaCl; native mass against calibration proteins, divided by the monomer's mass
[7] = substrate: N[C@@H](CC(=O)O)C(=O)Nc1ccc([N+](=O)[O-])cc1; assay: purified protein; format: biochemical, Lactococcus lactis; conditions: apparent, 50 mM Na/K-phosphate pH 8.0, 65 °C, 0.3125 mM CoCl2, about 5% DMSO, fit with substrate inhibition
[8] = substrate: N[C@@H](CCC(=O)O)C(=O)Nc1ccc([N+](=O)[O-])cc1; assay: purified protein; format: biochemical, Lactococcus lactis; conditions: apparent, 50 mM Na/K-phosphate pH 8.0, 65 °C, 0.3125 mM CoCl2, about 5% DMSO, fit with substrate inhibition
[9] = substrate: N[C@@H](CC(=O)O)C(=O)Nc1ccc([N+](=O)[O-])cc1; assay: purified protein; format: biochemical, Lactobacillus delbrueckii; conditions: apparent, 50 mM Na/K-phosphate pH 6.0, 60 °C, 0.625 mM CoCl2, about 5% DMSO, fit with substrate inhibition
[10] = substrate: N[C@@H](CCC(=O)O)C(=O)Nc1ccc([N+](=O)[O-])cc1; assay: purified protein; format: biochemical, Lactobacillus delbrueckii; conditions: apparent, 50 mM Na/K-phosphate pH 6.0, 60 °C, 0.625 mM CoCl2, about 5% DMSO, substrate tested only up to 7.3 mM (solubility)

Molecule: N[C@@H](CC(=O)O)C(=O)O [L-Asp]
activity at 10000 µM [4]: 78.2%

Molecule: Glutamyl (aspartyl)-specific aminopeptidase A (PepA) from Lactobacillus delbrueckii ssp. lactis DSM 20072 (enzyme)
stoichiometry N [5]: 12

Molecule: Glutamyl (aspartyl)-specific aminopeptidase A (PepA) from Lactococcus lactis ssp. lactis DSM 20481 (from UniProt Q48677 1-355) (enzyme)
stoichiometry N [6]: 12

B1: Lc-PepA (Lactococcus lactis subsp. lactis Il1403) (protein)
chain: MELFDKVKALTEIQATSGFEGSVRDYLKTRMIALGYQPEFDGLGGIFVTKTSKVANAPRIMIAAHMDEVGFMVSSIKADGTFRVVPLGGWNPLVVSGQRFTLFTRTGKKIPVVTGGLPPHLLRGTGVTPQIPAISDIVFDGAFENAAEATEFGIAQGDVIIPETETILSANGKNIISKAWDNRYGCLMILELLGFLADKELPATLIIGANVQEEVGLRGAKVSTTMFKPDLFFAVDCSPASDTFGDDNGRLGEGTTLRFFDPGHIMLPGMKNFLLETADKAKVKTQVYMAKGGTDAGAAHLANNGVPSTTIGVVARYIHSHQTIFNIDDFNQAQTFLRNIVTSLSTEKVAEIKNY
notes: full length (355 aa, 1068 bp gene), C-terminal His6-tag kept, pET20b(+), E. coli BL21(DE3), Ni-NTA purified
Km [7]: 340 µM
Km [8]: 190 µM

B2: Lb-PepA (Lactobacillus delbrueckii subsp. lactis DSM 20072) (protein)
chain: MEKAAEIQMLKDFSNANATSGFENEFVDLFTKTVKDYADLEVDGMLNVYASKKQNTGKRPVIQLDAHSDAVGFLTQAIRPNGLIKFVTLGGWNNVVLPALKVKVRNRDGEYIPGVVALKPPHFMSEAERKSVPQVADLSIDVGSSSREETINDYKIDTGCPIFVDVDCEYNEKTGLFFGKDFDDRFGAAAMADILENLKDEEVNFDLVAALSSQEEVGLRGAYVTARKIKPDLCLVLESCPADDTFEPDWLSQTGLKRGPMLRDMDVTFLPNPKFQQYACDLADKNGIPYTRSVRTGGGQDGAAIYYENGAPTIVIGIPVRYEHSPYCFSSYKDYKAAVDLALAIIRDIDKEKLESFKSFN
notes: full length (361 aa, 1086 bp gene), C-terminal His6-tag kept, pET20b(+), E. coli BL21(DE3), Ni-NTA purified
Km [9]: 1210 µM
Km [10]: 25200 µM

Results, then the molecule that gave them:

H-Asp-pNA / KIS [mM] [1]: 6.66 mM
H-Asp-pNA / KIS [mM] [2]: 41.9 mM
Molecule: N[C@@H](CC(=O)O)C(=O)Nc1ccc([N+](=O)[O-])cc1 [H-Asp-pNA]

H-Glu-pNA / KIS [mM] [3]: 3.61 mM
Molecule: N[C@@H](CCC(=O)O)C(=O)Nc1ccc([N+](=O)[O-])cc1 [H-Glu-pNA]

activity at 10000 µM [4]: 82.3%
Molecule: N[C@@H](CCC(=O)O)C(=O)O [L-Glu]
